Measurements as given in patent US7364887B2, “Use of PAK inhibitor for the treatment of a joint disease” (Sanofi-Aventis Deutschland GmbH, priority 2003, dated 2008).

Columns and labels:
Format in all cases: cell-based, human
[1] = system: IL-1β induced expression of MMP13 in SW1353 cells; assay: MMP13 protein in supernatants by ELISA after overexpression of PAK1-ID in SW1353 cells; conditions: SW1353 cells transfected with pCEP4_PAK1-ID vs void vector, ELISA of supernatant
Experimental: The PAK1 inhibitory domain was subcloned into the pCEP4 vector and transfected into SW1353 cells. Where indicated, IL-1β was used as a stimulus at a concentration of 10 ng/ml for 24 h. Supernatants were collected and the amount of MMP13 protein was determined by ELISA. Values are shown in arbitrary units and represent at least 3 independent results ±SD. The chequered column represents the experiments with the vector pCEP4 (void vector) and the black column represents the experiments with the vector pCEP4_PAK1-ID.
(§1) (Kozak sequence is underlined, hemagglutinin (HA) tag is in bold) and 5′-[…]-3′(SEQ ID NO: 12) (MWG, Biotech AG, Germany). […]
(§2) Cultures of human SW1353 chondrosarcoma were grown in Dulbecco's modified Eagles's medium (DMEM) containing 10% fetal calf serum (FCS) and penicillin/streptomycin (37° C., 5% CO2). […] The transfection efficiency was examined with a FACScan (Becton Dickinson Immunocytometry Systems, Inc., Mountain View, Calif., U.S.A.) and on an inverted fluorescence microscope. […]
(§3) Human embryonic kidney (HEK) 293 were maintained in Dulbecco's modified Eagle's medium supplemented with 10% fetal calf serum. […] Culture supernatant were removed and expression of IL-8 (R&D Systems, Inc., Minneapolis, Minn., U.S.A.), PGE2 (SpiBiom Inc.), and MMP-13 (Amersham Pharmacia Biotech, Inc.) was monitored by ELISA according to the procedure supplied by the manufacturer. […]

[2] = system: IL-1β induced expression of IL-8 in HEK293 cells; assay: IL-8 protein in supernatants by ELISA after transient transfection of PAK1-ID in HEK293 cells; conditions: HEK293 cells transiently transfected with pCDNA3.1_PAK1-ID vs void vector; IL-1β 10 ng/ml, time course; ELISA of supernatant
Experimental: The PAK1 inhibitory domain subcloned into the pCDNA3.1 vector was transiently transfected into HEK293 cells. Cells were stimulated with IL-1β at a concentration of 10 ng/ml for the indicated time periods. Supernatants were collected and the amount of IL-8 protein was determined by ELISA. Values in arbitrary units represent the mean of two experiments. The circles represents the experiments with the vector pCDNA3.1_PAK1-ID plus IL-1β and the squares represent the experiments with the vector pCDNA3.1 (void vector) plus IL-1β.
as §1
Human embryonic kidney (HEK) 293 were maintained in Dulbecco's modified Eagle's medium supplemented with 10% fetal calf serum. […] Culture supernatant were removed and expression of IL-8 (R&D Systems, Inc., Minneapolis, Minn., U.S.A.), PGE2 (SpiBiom Inc.), and MMP-13 (Amersham Pharmacia Biotech, Inc.) was monitored by ELISA according to the procedure supplied by the manufacturer.
For the analysis of MMP13, IL-8 and PGE2 protein levels, supernatants of cell cultures were determined by ELISA for MMP13 (Amersham Pharmacia Biotech, Inc.), IL-8 (R&D Systems, Inc. Minneapolis, Minn., U.S.A.) and PGE2 (SpiBio) as described by the supplier. […]

[3] = system: IL-1β induced expression of PGE2 in SW1353 cells; assay: PGE2 in supernatants by ELISA after overexpression of PAK1-ID in SW1353 cells; conditions: SW1353 cells transfected with pCEP4_PAK1-ID vs void vector; IL-1β and TNFα both 10 ng/ml for 24 h; ELISA of supernatant
Experimental: The PAK1 inhibitory domain was subcloned into the pCEP4 vector and transfected into SW1353 cells. Cells were stimulated with a combination of IL-1β and TNFα both at a concentration of 10 ng/ml for 24 h. Supernatants were collected and the amount of MMP13 protein was determined by ELISA. Values in arbitrary units represent the mean of two experiments. The punctured column represents the experiments with no vector plus IL1β and TNFα. The chequered column represents the experiments with the vector pCEP4 (void vector) plus IL1β and TNFα. The black column represents the experiments with the vector pCEP4_PAK1-ID plus IL1β and TNFα. […]
as §2, §3

B1: PAK1-ID: Autoinhibitory domain of PAK1, residues 83 to 149 (SEQ ID NO: 6), HA-tagged, overexpressed from pCEP4 or pcDNA3.1 vector in cells (protein, listed as Homo sapiens)
chain: HTIHVGFDAVTGEFTGMPEQWARLLQTSNITKSEQKKNPQAVLDVLEFYNSKKTSNSQKYMSFTDKS
modifications: HA tag
inhibition of the IL-1β-induced expression of MMP13 ([1]; IL-1β 10 ng/ml for 24 h): ~55%
inhibition of basal MMP13 secretion in non-stimulated cells ([1]; non-stimulated (no IL-1β)): > 80%
effect on IL-1β induced expression of IL-8 [2]: represses the IL-1β induced expression of IL-8
inhibition of IL-1β induced expression of PGE2 [3]: more than 50%
